What all share (test): purified protein
Common to all, as to settings: pH 6.5, 55 °C, 10 min, sodium phosphate, metal-dependent enzyme

Substrate in series [1]: O=[N+]([O-])c1ccc(O[C@H]2OC[C@@H](O)[C@@H](O)[C@@H]2O)cc1
Substrate in series [2]: O=[N+]([O-])c1ccc(O[C@@H]2O[C@H](CO)[C@H](O)[C@H](O)[C@H]2O)cc1
Substrate in series [3]: C[C@H]1O[C@@H](Oc2ccc([N+](=O)[O-])cc2)[C@H](O)[C@@H](O)[C@H]1O
Substrate in series [4]: O=[N+]([O-])c1ccc(O[C@H]2O[C@H](CO)[C@@H](O)[C@@H]2O)cc1

B1: ThABF (Trichoderma harzianum) (protein)
chain: GPCDIYSSGGTPCVAAHSTTRALYSAYTGPLYQVKRGSDGATTTISPLSSGVANAAAQDSFCAGTTCLITIIYDQSGRGNHLTQAPPGGFNGPESNGYDNLASAIGAPVTLNGQKAYGVFISPGTGYRNNAASGTAKGDAAEGMYAVLDGTHYNGACCFDYGNAETSSRDTGNGHMEAIYYGDSTVWGTGSGNGPWIMADLENGLFSGSAVHNNAGDPSISYRFVTAAVKGQPNQWAIRGGNSASGSLSTFYNGARPSASGYNPMSKEGAIILGIGGDNSNGAQGTFYEGVMTSGYPSDATENSVQANIVAAKYAVTSLTSGPALTTGSSVSLRATTACCTTRYITHSGSTVNTQVVSSSSATAPKQQASWTVRAGLGNSGCFSFESKDTPGSYIRHNNFVLLLNANDGSKQFAEDATFCPQAGLNGQGSSLRAWGYPTRYFRHYDNVLYVASNGGVHTFDATGSFNDDVSFVISASFA
With B1, the Michaelis-Menten constant (Km) (usually the substrate concentration at which the rate is half of its maximum) in the series “purified protein [1]” was 3.30 ± 0.16 mM; in the series “purified protein [2]” it was 1.68 ± 0.12 mM; in the series “purified protein [3]”, 6.51 ± 1.00 mM; in the series “purified protein [4]”, 6.75 ± 3.24 mM. Also, the kcat (as a rule, the maximal rate divided by the concentration of active sites) in “purified protein [1]” turned out to be 13.4 s⁻¹; in the series “purified protein [2]” it was 35.5 s⁻¹; in the series “purified protein [3]” it was 35.7 s⁻¹; in the series “purified protein [4]”, 1.61 s⁻¹. For the same protein, the specificity constant (kcat/Km) (as a rule, the second-order rate constant that governs catalysis at low substrate concentration) was 4070 M⁻¹ s⁻¹ in “purified protein [1]”, 21100 M⁻¹ s⁻¹ in “purified protein [2]”, 5480 M⁻¹ s⁻¹ in the series “purified protein [3]” and 238 M⁻¹ s⁻¹ in “purified protein [4]”.

For the origin of these results see article PMC8155123, “A novel fungal metal-dependent α-L-arabinofuranosidase of family 54 glycoside hydrolase shows expanded substrate specificity” (Scientific Reports, 2021).
